Results: the supplement of paper PMC11246515
± gives the standard deviation of the averaged measurements.

Assay: total protein half-life in vivo (active degradation + dilution); higher = more stable protein
[1] = E. coli NCM3722 delta-clpP delta-lon delta-hslV, growth: N-lim chemostat, doubling time 6 h
[2] = E. coli NCM3722 delta-clpP, growth: N-lim chemostat, doubling time 6 h
[3] = E. coli NCM3722 delta-hslV, growth: N-lim chemostat, doubling time 6 h
[4] = E. coli NCM3722 delta-lon, growth: N-lim chemostat, doubling time 6 h
[5] = E. coli NCM3722 delta-smpB, growth: N-lim chemostat, doubling time 6 h
[6] = wild type E. coli NCM3722, growth: C-lim chemostat, doubling time 3 h
[7] = wild type E. coli NCM3722, growth: C-lim chemostat, doubling time 6 h
[8] = wild type E. coli NCM3722, growth: C-lim chemostat, doubling time 12 h
[9] = wild type E. coli NCM3722, growth: N-lim chemostat, doubling time 6 h
[10] = wild type E. coli NCM3722, growth: N-lim chemostat, doubling time 12 h
[11] = wild type E. coli NCM3722, growth: P-lim chemostat, doubling time 6 h
[12] = wild type E. coli NCM3722, growth: P-lim chemostat, doubling time 12 h

| Sequence | total protein half-life in vivo [1] [h] | total protein half-life in vivo [2] [h] | total protein half-life in vivo [3] [h] | total protein half-life in vivo [4] [h] | total protein half-life in vivo [5] [h] | total protein half-life in vivo [6] [h] | total protein half-life in vivo [7] [h] | total protein half-life in vivo [8] [h] | total protein half-life in vivo [9] [h] | total protein half-life in vivo [10] [h] | total protein half-life in vivo [11] [h] | total protein half-life in vivo [12] [h] |
| --- | --- | --- | --- | --- | --- | --- | --- | --- | --- | --- | --- | --- |
| MKLDEIARLAGVSRTTASYVINGKAKQYRVSDKTVEKVMAVVREHNYHPNAVAAGLRAGRTRSIGLVIPDLENTSYTRIANYLERQARQRGYQLLIACSEDQPDNEMRCIEHLLQRQVDAIIVSTSLPPEHPFYQRWANDPFPIVALDRALDREHFTSVVGADQDDAEMLAEELRKFPAETVLYLGALPELSVSFLREQGFRTAWKDDPREVHFLYANSYEREAAAQLFEKWLETHPMPQALFTTSFALLQGVMDVTLRRDGKLPSDLAIATFGDNELLDFLQCPVLAVAQRHRDVAERVLEIVLASLDEPRKPKPGLTRIKRNLYRRGVLSRS [P0ACP1] | 6.0472 ± 0.0054 | 5.37 ± 0.29 | 5.38 ± 0.37 | 5.87 ± 0.21 | 5.16 ± 0.56 | 3.17 ± 0.32 | 5.63 ± 0.057 | 9.99 ± 0.83 | 5.65 ± 0.2 | 10.7 ± 0.77 | 5.6 ± 0.084 | 10.65 ± 0.013 |
| MTMTRLKISKTLLAVMLTSAVATGSAYAENNAQTTNESAGQKVDSSMNKVGNFMDDSAITAKVKAALVDHDNIKSTDISVKTDQKVVTLSGFVESQAQAEEAVKVAKGVEGVTSVSDKLHVRDAKEGSVKGYAGDTATTSEIKAKLLADDIVPSRHVKVETTDGVVQLSGTVDSQAQSDRAESIAKAVDGVKSVKNDLKTK [P0AFH8] | 3.62 ± 0.17 | 4.7 ± 0.28 | 5.73 ± 0.24 | 5.7 ± 0.33 | 5.25 ± 0.3 | 2.96 ± 0.067 | 5.39 ± 0.2 | 8.26 ± 2.2 | 5.5 ± 0.26 | 11.3 ± 0.17 | 4.9 ± 0.15 | 9.28 ± 0.88 |
| MSFWKVAAAQYEPRKTSLTEQVAHHLEFVRAAARQQCQLLVFPSLSLLGCDYSRRALPAPPDLSLLDPLCYAATTWRMTIIAGLPVEYNDRFIRGIAVFAPWRKTPGIYHQSHGACLGRRSRTITVVDEQPQGMDMDPTCSLFTTGQCLGEPDLLASARRLQFFSHQYSIAVLMANARGNSALWDEYGRLIVRADRGSLLLVGQRSSQGWQGDIIPLR | 5.47 | – | – | – | – | – | – | – | – | – | – | – |
| MVSKPFQRPFSLATRLTFFISLATIAAFFAFAWIMIHSVKVHFAEQDINDLKEISATLERVLNHPDETQARRLMTLEDIVSGYSNVLISLADSQGKTVYHSPGAPDIREFTRDAIPDKDAQGGEVYLLSGPTMMMPGHGHGHMEHSNWRMINLPVGPLVDGKPIYTLYIALSIDFHLHYINDLMNKLIMTASVISILIVFIVLLAVHKGHAPIRSVSRQIQNITSKDLDVRLDPQTVPIELEQLVLSFNHMIERIEDVFTRQSNFSADIAHEIRTPITNLITQTEIALSQSRSQKELEDVLYSNLEELTRMAKMVSDMLFLAQADNNQLIPEKKMLNLADEVGKVFDFFEALAEDRGVELRFVGDKCQVAGDPLMLRRALSNLLSNALRYTPTGETIVVRCQTVDHLVQVIVENPGTPIAPEHLPRLFDRFYRVDPSRQRKGEGSGIGLAIVKSIVVAHKGTVAVTSDARGTRFVITLPA | 6.87 ± 0.17 | 6.49 ± 0.093 | 5.99 ± 1.1 | 5.94 ± 0.29 | 5.79 ± 0.62 | 3.52 ± 0.32 | 6.15 ± 0.53 | 12.5 ± 1.1 | 5.98 ± 0.11 | 11.78 ± 0.088 | 6.28 ± 0.53 | 12.6 ± 0.38 |
| MIREAQRSELPAILELWLESTTWGHPFIKANYWRDCIPLVRDAYLANAQNWVWEEDGKLLGFVSIMEGRFLAAMFVAPKAVRRGIGKALMQYVQQRHPHLMLEVYQKNQPAINFYQAQGFHIVDCAWQDETQLPTWIMSWPVVQTL | 5.19 | – | 2.72 | 3.34 ± 0.79 | – | > 4 | 3.55 | 4.76 | 2.33 ± 0.12 | 3.08 ± 0.13 | 4.08 | 6.74 ± 0.19 |
| MKNIVPDYRLDMVGEPCPYPAVATLEAMPQLKKGEILEVVSDCPQSINNIPLDARNHGYTVLDIQQDGPTIRYLIQK [P0AA31] | – | – | – | – | – | 3.04 ± 0.69 | 5.2 ± 0.98 | 6.03 | – | – | – | – |
| MHVFDNNGIELKAECSIGEEDGVYGLILESWGPGDRNKDYNIALDYIIERLVDSGVSQVVVYLASSSVRKHMHSLDERKIHPGEYFTLIGNSPRDIRLKMCGYQAYFSRTGRKEIPSGNRTKRILINVPGIYSDSFWASIIRGELSELSQPTDDESLLNMRVSKLIKKTLSQPEGSRKPVEVERLQKVYVRDPMVKAWILQQSKGICENCGKNAPFYLNDGNPYLEVHHVIPLSSGGADTTDNCVALCPNCHRELHYSKNAKELIEMLYVNINRLQK | 5.51 | – | 4.2 | 5.87 | 4.87 | – | – | – | 4.8 ± 0.71 | 8.5 ± 1.1 | – | 10.2 |
